Assay results taken from article PMC9006650, “Phosphorylation and acetylation of mitochondrial transcription factor A promote transcription processivity without compromising initiation or DNA compaction”.

Target: T1, TFAM (unmodified) (Homo sapiens, UniProt Q00059 43-246)
T1 sequence: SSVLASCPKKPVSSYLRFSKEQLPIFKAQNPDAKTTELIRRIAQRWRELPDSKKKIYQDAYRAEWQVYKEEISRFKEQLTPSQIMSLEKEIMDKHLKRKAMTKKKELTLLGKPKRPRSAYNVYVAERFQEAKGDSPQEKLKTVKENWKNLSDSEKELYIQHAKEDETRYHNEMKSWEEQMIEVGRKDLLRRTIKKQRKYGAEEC
Assay: EMSA; 40 nM DNA; 50, 25, 12 bp per TFAM; no gel shift (legend: very low affinity); pUC19: 50 mM Tris-acetate pH 8.0, 100 mM K acetate, 5 mM Mg acetate, 1 mM DTT, 37 C 30 min, 1% agarose at 4 C; poly-T: 25 mM Tris-HCl pH 8.0, 70 mM NaCl, 10 mM
Conditions: protein: recombinant; tags: N-terminal His6 removed with TEV protease; label: 5'-32P; single strand

TTTTTTTTTTTTTTTTTTTTTTTTTTTTTT (ssDNA) [poly-T ssDNA 30-mer]: no binding.
